Positions count from the first letter of the chain named. Names and notes keep the numbering of the source.
B1: AB17L3-1/N (bispecific antibody, human IgG1, kappa, lambda, L234A L235A)
heavy: EVQLVESGGGLVQPGGSLKLSCAASGFTFNTYAMNWVRQAPGKGLEWVGRIRSKYNNYATYYADSVKDRFTISRDDSKNTAYLQMNSLKTEDTAVYYCVRHGNFGNSYVSWFAYWGQGTLVTVSSASTKGPSVFPLAPSSKSTSGGTAALGCLVKDYFPEPVTVSWNSGALTSGVHTFPAVLQSSGLYSLSSVVTVPSSSLGTQTYICNVNHKPSNTKVDKRVEPKSCDKTHTCPPCPAPEAAGGPSVFLFPPKPKDTLMISRTPEVTCVVVDVSHEDPEVKFNWYVDGVEVHNAKTKPREEQYNSTYRVVSVLTVLHQDWLNGKEYKCKVSNKALAAPIEKTISKAKGQPREPQVYTLPPSREEMTKNQVSLTCLVKGFYPSDIAVEWESNGQPENNYKTTPPVLDSDGSFFLYSKLTVDKSRWQQGNVFSCSVMHEALHNHYTQKSLSLSPG
light 1: EIVLTQSPATLSLSPGERATLSCRASQSVNSNLNWYQQKPGQAPRLLIYHGSNRATGIPARFSGSGSGTDFTLTISSLEPEDFAVYYCQQFDYFKEHNTFGQGTKVEIKRTVAAPSVFIFPPSDEQLKSGTASVVCLLNNFYPREAKVQWKVDNALQSGNSQESVTEQDSKDSTYSLSSTLTLSKADYEKHKVYACEVTHQGLSSPVTKSFNRGEC
light 2: QTVVTQEPSLTVSPGGTVTLTCRSSTGAVTTSNYANWFQQKPGQAPRGLIGGTNKRAPGTPARFSGSLLGGKAALTLSGAQPEDEAEYYCALWYKQRWVFGGGTKLTVLGQPKAAPSVTLFPPSSEELQANKATLVCLISDFYPGAVTVAWKADSSPVKAGVETTTPSKQSNNKYAASSYLSLTPEQWKSHRSYSCQVTHEGSTVEKTVAPTECS
notes: Kappa-lambda body, lead optimization wave 1
B2: AB1L3-1/N (bispecific antibody, human IgG1, kappa, lambda, L234A L235A)
heavy: B1 heavy
light 1: B1 light 1 with Y93L, F94R, K95H
light 2: B1 light 2
notes: Kappa-lambda body: common heavy chain (hIgG1 L234A+L235A+P329A), kappa CEA light chain AB1, lambda CD3 light chain L3-1 (1A4); also called parental KL bispecific antibody
B3: AB71L3-1/N (bispecific antibody, human IgG1, kappa, lambda, L234A L235A)
heavy: B1 heavy
light 1: B1 light 1 with G51S, A55P, T56H
light 2: B1 light 2
notes: Kappa-lambda body, lead optimization wave 2
B4: AB72L3-1/N (bispecific antibody, human IgG1, kappa, lambda, L234A L235A)
heavy: B1 heavy
light 1: B1 light 1 with G51S, S52T, A55P, T56R, H97Y
light 2: B1 light 2
notes: as for B3
B5: AB73L3-1/N (bispecific antibody, human IgG1, kappa, lambda, L234A L235A)
heavy: B1 heavy
light 1: B1 light 1 with G51S, S52N, A55P, T56H, K95R, H97Y
light 2: B1 light 2
notes: as for B3

Tests used:
human CD3ε [1] = biological target: T1, human CD3ε (human, UniProt P07766 23-207); experiment: flow cytometry, HUT-78 cells
T1 construct: whole, on cells; Present on cells as part of the CD3/TCR complex; also called CD3 epsilon
T1 sequence (P07766 23-207): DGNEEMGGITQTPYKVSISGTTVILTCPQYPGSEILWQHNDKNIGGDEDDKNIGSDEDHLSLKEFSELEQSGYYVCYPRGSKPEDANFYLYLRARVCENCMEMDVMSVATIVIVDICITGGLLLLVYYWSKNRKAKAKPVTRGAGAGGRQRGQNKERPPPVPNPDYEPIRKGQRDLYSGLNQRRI

[2] = biological target: T2, human CEACAM5 (carcinoembryonic antigen, CEA), cell surface (human, UniProt P06731 35-685); experiment: cell-based or functional assay
T2 sequence (looked up): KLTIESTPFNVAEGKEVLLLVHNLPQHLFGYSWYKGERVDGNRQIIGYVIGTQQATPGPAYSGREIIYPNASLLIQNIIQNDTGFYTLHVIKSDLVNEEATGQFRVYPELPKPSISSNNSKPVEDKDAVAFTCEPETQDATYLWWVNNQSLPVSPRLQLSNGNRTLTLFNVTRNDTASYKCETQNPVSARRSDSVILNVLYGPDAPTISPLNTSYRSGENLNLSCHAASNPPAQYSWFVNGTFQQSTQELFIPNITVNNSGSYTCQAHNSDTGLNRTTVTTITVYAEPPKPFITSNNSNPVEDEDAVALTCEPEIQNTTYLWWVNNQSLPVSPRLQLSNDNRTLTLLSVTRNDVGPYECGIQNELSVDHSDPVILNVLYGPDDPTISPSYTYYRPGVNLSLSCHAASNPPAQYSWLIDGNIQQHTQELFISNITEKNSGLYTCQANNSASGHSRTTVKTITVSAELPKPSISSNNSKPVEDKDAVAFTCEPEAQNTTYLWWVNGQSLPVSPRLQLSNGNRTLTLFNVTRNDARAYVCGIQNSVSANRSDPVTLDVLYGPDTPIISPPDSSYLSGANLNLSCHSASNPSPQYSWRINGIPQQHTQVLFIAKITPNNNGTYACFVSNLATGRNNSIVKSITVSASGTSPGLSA

human CEACAM3 = biological target: T3, human CEACAM3 (human, UniProt P40198 35-252); experiment: flow cytometry, transfected PEAK cells
T3 construct: whole, on cells
T3 sequence (looked up): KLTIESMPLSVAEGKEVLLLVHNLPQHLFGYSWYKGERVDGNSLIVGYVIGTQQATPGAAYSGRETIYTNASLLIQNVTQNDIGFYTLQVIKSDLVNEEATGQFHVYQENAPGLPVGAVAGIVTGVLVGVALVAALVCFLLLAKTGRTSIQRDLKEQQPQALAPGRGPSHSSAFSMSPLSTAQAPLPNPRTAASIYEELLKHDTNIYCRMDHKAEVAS
Excerpt: (§1) Vectors encoding the full-length version of human CEACAM 1, 3, 4, 5, 6, 7, 8, 18, 19, 20 and […] are used to express these proteins at the surface of PEAK and/or CHO cells as described in Example 1. Similarly, vectors encoding the full-length version of cyno CEACAM 5 and 6 are also used to express these proteins at the surface of PEAK and/or CHO cells. Non-transfected PEAK and/or CHO cells are used as negative control. Cells are harvested, counted, checked for viability and resuspended at 3×10⁶ cells/ml in FACS buffer (PBS 2% BSA, 0.1% NaN₃). 100 μl of the cell suspension are distributed in V-bottom 96-well plates (3×10⁵ cells/well). The supernatant is removed by centrifugation 3 minutes at 4° C., 1300 rpm and the cells incubated for 15 minutes at 4° C. with increasing concentrations of the antibody according to the invention. The antibodies carrying the anti-CEACAM5 arms to test are diluted in FACS buffer and the concentration range is 30 pM-500 nM. Cells are washed twice with cold FACS buffer and re-incubated for further 15 minutes at 4° C. with a compatible anti-human IgG secondary antibody. Cells are washed twice with cold FACS buffer and resuspended in 300 μl FACS buffer with 1:1500-diluted TOPRO-3 (Invitrogen). Fluorescence is measured using a FACSCalibur™ (BD Biosciences) or a Cytoflex Platform (Beckman Coulter). Dose-response binding curves are fitted using GraphPad Prism8 software. In the same manner, CEACAM1, CEACAM6 and other CEACAMs can be characterized.
(§2) For the bispecific antibodies AB17L3-1/N, AB71L3-1/N, AB72L3-1/N, AB73L3-1/N the MFI measured for binding to CEACAM5 transfected cells was found between 29000 and 41000 (Table 2). In contrast MFI found by using PEAK cells transfected with CEACAM 1,3,4,6,8 were found below 1000 with the only exception of a strong signal for AB72L3-1/N on CEACAM8 transfected cells. When MFI values obtained on transfected cells expressing any given CEACAM are divided by the values obtained on WT PEAK cells, “factors to PEAK WT” can be calculated (Table 3).

human CEACAM4 = biological target: T4, human CEACAM4 (human, UniProt O75871 36-244); experiment: flow cytometry, transfected PEAK cells
T4 construct: whole, on cells
T4 sequence (looked up): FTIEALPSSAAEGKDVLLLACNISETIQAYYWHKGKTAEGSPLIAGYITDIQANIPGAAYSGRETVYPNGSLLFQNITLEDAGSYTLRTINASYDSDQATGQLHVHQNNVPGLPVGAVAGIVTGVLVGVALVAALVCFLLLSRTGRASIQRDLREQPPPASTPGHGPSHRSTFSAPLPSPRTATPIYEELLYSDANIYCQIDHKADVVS
Excerpt: as §1, §2

human CEACAM8 = biological target: T5, human CEACAM8 (human, UniProt P31997 35-320); experiment: flow cytometry, transfected PEAK cells
T5 construct: whole, on cells
T5 sequence (looked up): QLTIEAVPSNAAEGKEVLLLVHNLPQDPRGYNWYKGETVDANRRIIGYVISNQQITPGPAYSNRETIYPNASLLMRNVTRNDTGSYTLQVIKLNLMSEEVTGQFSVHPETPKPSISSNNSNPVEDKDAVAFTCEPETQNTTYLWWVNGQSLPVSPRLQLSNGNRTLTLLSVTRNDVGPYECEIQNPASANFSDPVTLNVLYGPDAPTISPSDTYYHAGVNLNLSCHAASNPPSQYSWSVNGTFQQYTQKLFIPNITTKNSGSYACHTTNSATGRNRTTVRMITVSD
Excerpt: as §1, §2

human CEACAM6 = biological target: T6, human CEACAM6 (human, UniProt P40199 35-320); experiment: flow cytometry, transfected PEAK cells
T6 construct: whole, on cells; also called CD66c
T6 sequence (looked up): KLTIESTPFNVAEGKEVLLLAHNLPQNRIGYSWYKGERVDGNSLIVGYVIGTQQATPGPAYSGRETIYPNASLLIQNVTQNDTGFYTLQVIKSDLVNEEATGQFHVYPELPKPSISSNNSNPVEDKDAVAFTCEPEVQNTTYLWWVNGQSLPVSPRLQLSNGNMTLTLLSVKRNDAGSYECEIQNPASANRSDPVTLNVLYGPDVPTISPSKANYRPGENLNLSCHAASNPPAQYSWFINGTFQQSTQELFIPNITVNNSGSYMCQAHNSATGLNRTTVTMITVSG
Excerpt: as §1, §2

human CD3ε [3] = biological target: T1, human CD3ε; experiment: flow cytometry, primary CD4+ and CD8+ T-cells

Binder	binding result (human CD3ε [1])	Killing EC50, HPAFII cells (TDCC, LDH release) [2]	Killing EC50, LS174T cells (TDCC, LDH release) [2]	Killing EC50, MKN45 cells (TDCC, LDH release) [2]	binding result (human CEACAM3)	binding result (human CEACAM4)	binding result (human CEACAM8)	binding result (human CEACAM6)	binding result (human CD3ε [3])
B1	binds	0.16 nM	0.25 nM	0.11 nM	no binding (tested: 10 mcg/ml)	no binding (tested: 10 mcg/ml)	no binding (tested: 10 mcg/ml)	no binding (tested: 10 mcg/ml)	
B2					no binding (tested: 10 mcg/ml)	no binding (tested: 10 mcg/ml)	no binding (tested: 10 mcg/ml)	no binding (tested: 10 mcg/ml)	
B3		0.16 nM	0.16 nM	0.09 nM					
B4		0.12 nM	0.11 nM	0.02 nM	no binding (tested: 10 mcg/ml)	no binding (tested: 10 mcg/ml)		no binding (tested: 10 mcg/ml)	binds
B5		0.13 nM	0.06 nM	0.03 nM					
